Reference: the supplement of paper PMC9112550, “Optimization of the antimicrobial peptide Bac7 by deep mutational scanning” (BMC Biology, 2022)

Test system: Escherichia coli TOP10
Assay: shrunken log2 fold change of peptide-encoding DNA abundance (4.5 h post-induction vs induction); higher = less antimicrobial activity (less host growth inhibition)
Details: time post-induction: 4.5 h; library: site-saturation at positions 5, 18, 19, 20
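Note: peptides expressed intracellularly from a pBAD plasmid library in pooled LB shake-flask culture, induced with 0.3% L-arabinose, DNA abundance read by NGS, three biological replicates, DESeq2 with apeglm shrinkage.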

RRIRPRPPRLPRPRPRPNQPPRP
shrunken log2 fold change: 0.0225

RRIRPRPPRLPRPRPRPNRAPRP
shrunken log2 fold change: 0.371

RRIRPRPPRLPRPRPRPNSIPRP
shrunken log2 fold change: -0.254

RRIRPRPPRLPRPRPRPNTRPRP
shrunken log2 fold change: -0.112

RRIRPRPPRLPRPRPRPNTVPRP
shrunken log2 fold change: -0.411

RRIRPRPPRLPRPRPRPNVCPRP
shrunken log2 fold change: -0.169

RRIRPRPPRLPRPRPRPNWSPRP
shrunken log2 fold change: 0.0504

RRIRPRPPRLPRPRPRPNYRPRP
shrunken log2 fold change: -0.451

RRIRPRPPRLPRPRPRPPAAPRP
shrunken log2 fold change: 0.54

RRIRPRPPRLPRPRPRPPAFPRP
shrunken log2 fold change: 0.166

RRIRPRPPRLPRPRPRPPCAPRP
shrunken log2 fold change: 0.925

RRIRPRPPRLPRPRPRPPCKPRP
shrunken log2 fold change: 0.19

RRIRPRPPRLPRPRPRPPCYPRP
shrunken log2 fold change: 0.0837

RRIRPRPPRLPRPRPRPPDPPRP
shrunken log2 fold change: 0.742

RRIRPRPPRLPRPRPRPPECPRP
shrunken log2 fold change: 0.338

RRIRPRPPRLPRPRPRPPEMPRP
shrunken log2 fold change: 0.426

RRIRPRPPRLPRPRPRPPEYPRP
shrunken log2 fold change: -0.558

RRIRPRPPRLPRPRPRPPFWPRP
shrunken log2 fold change: 0.767

RRIRPRPPRLPRPRPRPPGKPRP
shrunken log2 fold change: 0.335

RRIRPRPPRLPRPRPRPPGMPRP
shrunken log2 fold change: 0.501

RRIRPRPPRLPRPRPRPPGQPRP
shrunken log2 fold change: 0.141

RRIRPRPPRLPRPRPRPPHGPRP
shrunken log2 fold change: 0.374

RRIRPRPPRLPRPRPRPPHTPRP
shrunken log2 fold change: 0.398

RRIRPRPPRLPRPRPRPPILPRP
shrunken log2 fold change: -0.000706

RRIRPRPPRLPRPRPRPPIRPRP
shrunken log2 fold change: 0.41

RRIRPRPPRLPRPRPRPPKPPRP
shrunken log2 fold change: 0.0495

RRIRPRPPRLPRPRPRPPKTPRP
shrunken log2 fold change: 0.246

RRIRPRPPRLPRPRPRPPLWPRP
shrunken log2 fold change: 1.75

RRIRPRPPRLPRPRPRPPREPRP
shrunken log2 fold change: 0.678

RRIRPRPPRLPRPRPRPPRTPRP
shrunken log2 fold change: 0.609

RRIRPRPPRLPRPRPRPPSGPRP
shrunken log2 fold change: 0.527

RRIRPRPPRLPRPRPRPPTCPRP
shrunken log2 fold change: 0.051

RRIRPRPPRLPRPRPRPPVFPRP
shrunken log2 fold change: 0.308

RRIRPRPPRLPRPRPRPPVWPRP
shrunken log2 fold change: 0.27

RRIRPRPPRLPRPRPRPQAEPRP
shrunken log2 fold change: 0.113

RRIRPRPPRLPRPRPRPQAFPRP
shrunken log2 fold change: -0.00213

RRIRPRPPRLPRPRPRPQAGPRP
shrunken log2 fold change: 0.00187

RRIRPRPPRLPRPRPRPQATPRP
shrunken log2 fold change: -0.2

RRIRPRPPRLPRPRPRPQCLPRP
shrunken log2 fold change: 0.0368

RRIRPRPPRLPRPRPRPQCTPRP
shrunken log2 fold change: -0.0867

RRIRPRPPRLPRPRPRPQCYPRP
shrunken log2 fold change: -0.44

RRIRPRPPRLPRPRPRPQDKPRP
shrunken log2 fold change: -0.00457

RRIRPRPPRLPRPRPRPQEAPRP
shrunken log2 fold change: 0.0203

RRIRPRPPRLPRPRPRPQEIPRP
shrunken log2 fold change: 0.017

RRIRPRPPRLPRPRPRPQENPRP
shrunken log2 fold change: -0.125

RRIRPRPPRLPRPRPRPQEPPRP
shrunken log2 fold change: 0.265

RRIRPRPPRLPRPRPRPQESPRP
shrunken log2 fold change: -0.0337

RRIRPRPPRLPRPRPRPQFTPRP
shrunken log2 fold change: -0.285

RRIRPRPPRLPRPRPRPQGQPRP
shrunken log2 fold change: 0.0372

RRIRPRPPRLPRPRPRPQHEPRP
shrunken log2 fold change: -0.146

RRIRPRPPRLPRPRPRPQHGPRP
shrunken log2 fold change: -0.189

RRIRPRPPRLPRPRPRPQHMPRP
shrunken log2 fold change: -0.537

RRIRPRPPRLPRPRPRPQHVPRP
shrunken log2 fold change: 0.00743

RRIRPRPPRLPRPRPRPQHYPRP
shrunken log2 fold change: -0.675

RRIRPRPPRLPRPRPRPQIRPRP
shrunken log2 fold change: -0.207

RRIRPRPPRLPRPRPRPQISPRP
shrunken log2 fold change: -0.221

RRIRPRPPRLPRPRPRPQKRPRP
shrunken log2 fold change: 0.151

RRIRPRPPRLPRPRPRPQLPPRP
shrunken log2 fold change: 0.0534

RRIRPRPPRLPRPRPRPQMYPRP
shrunken log2 fold change: -0.338

RRIRPRPPRLPRPRPRPQNFPRP
shrunken log2 fold change: -0.0849

RRIRPRPPRLPRPRPRPQPWPRP
shrunken log2 fold change: 0.348

RRIRPRPPRLPRPRPRPQQLPRP
shrunken log2 fold change: 0.0282

RRIRPRPPRLPRPRPRPQQPPRP
shrunken log2 fold change: 0.132

RRIRPRPPRLPRPRPRPQQYPRP
shrunken log2 fold change: -0.108

RRIRPRPPRLPRPRPRPQREPRP
shrunken log2 fold change: -0.063

RRIRPRPPRLPRPRPRPQRRPRP
shrunken log2 fold change: -0.359

RRIRPRPPRLPRPRPRPQSHPRP
shrunken log2 fold change: -0.291

RRIRPRPPRLPRPRPRPQTYPRP
shrunken log2 fold change: -0.256

RRIRPRPPRLPRPRPRPQWIPRP
shrunken log2 fold change: 0.0662

RRIRPRPPRLPRPRPRPQYFPRP
shrunken log2 fold change: -0.0988

RRIRPRPPRLPRPRPRPRACPRP
shrunken log2 fold change: 0.456

RRIRPRPPRLPRPRPRPRCEPRP
shrunken log2 fold change: 0.809

RRIRPRPPRLPRPRPRPRCTPRP
shrunken log2 fold change: 0.753

RRIRPRPPRLPRPRPRPRDGPRP
shrunken log2 fold change: 0.694

RRIRPRPPRLPRPRPRPRDIPRP
shrunken log2 fold change: -0.191

RRIRPRPPRLPRPRPRPRDNPRP
shrunken log2 fold change: -0.104

RRIRPRPPRLPRPRPRPRENPRP
shrunken log2 fold change: 0.672

RRIRPRPPRLPRPRPRPRFEPRP
shrunken log2 fold change: 0.0793

RRIRPRPPRLPRPRPRPRIPPRP
shrunken log2 fold change: 0.243

RRIRPRPPRLPRPRPRPRLMPRP
shrunken log2 fold change: 0.337

RRIRPRPPRLPRPRPRPRMLPRP
shrunken log2 fold change: 0.00647

RRIRPRPPRLPRPRPRPRMVPRP
shrunken log2 fold change: -0.263

RRIRPRPPRLPRPRPRPRNAPRP
shrunken log2 fold change: 0.39

RRIRPRPPRLPRPRPRPRNIPRP
shrunken log2 fold change: -0.222

RRIRPRPPRLPRPRPRPRPDPRP
shrunken log2 fold change: 0.45

RRIRPRPPRLPRPRPRPRPPPRP
shrunken log2 fold change: 0.831

RRIRPRPPRLPRPRPRPRPSPRP
shrunken log2 fold change: 0.333

RRIRPRPPRLPRPRPRPRQYPRP
shrunken log2 fold change: -0.257

RRIRPRPPRLPRPRPRPRRDPRP
shrunken log2 fold change: 0.302

RRIRPRPPRLPRPRPRPRSEPRP
shrunken log2 fold change: 0.564

RRIRPRPPRLPRPRPRPRSLPRP
shrunken log2 fold change: 0.14

RRIRPRPPRLPRPRPRPRSYPRP
shrunken log2 fold change: 0.199

RRIRPRPPRLPRPRPRPRTKPRP
shrunken log2 fold change: 0.518

RRIRPRPPRLPRPRPRPRTNPRP
shrunken log2 fold change: -0.0218

RRIRPRPPRLPRPRPRPRTQPRP
shrunken log2 fold change: 0.223

RRIRPRPPRLPRPRPRPRVFPRP
shrunken log2 fold change: 0.607

RRIRPRPPRLPRPRPRPRVRPRP
shrunken log2 fold change: 0.217

RRIRPRPPRLPRPRPRPRVSPRP
shrunken log2 fold change: 0.00758

RRIRPRPPRLPRPRPRPRWDPRP
shrunken log2 fold change: -0.0161

RRIRPRPPRLPRPRPRPRWIPRP
shrunken log2 fold change: 0.157

RRIRPRPPRLPRPRPRPRYPPRP
shrunken log2 fold change: 0.202

RRIRPRPPRLPRPRPRPSAAPRP
shrunken log2 fold change: 0.487

RRIRPRPPRLPRPRPRPSALPRP
shrunken log2 fold change: -0.00612

RRIRPRPPRLPRPRPRPSDVPRP
shrunken log2 fold change: -0.249

RRIRPRPPRLPRPRPRPSEFPRP
shrunken log2 fold change: -0.0966

RRIRPRPPRLPRPRPRPSEKPRP
shrunken log2 fold change: -0.0945

RRIRPRPPRLPRPRPRPSEQPRP
shrunken log2 fold change: -0.233

RRIRPRPPRLPRPRPRPSFFPRP
shrunken log2 fold change: 0.19

RRIRPRPPRLPRPRPRPSFIPRP
shrunken log2 fold change: -0.601

RRIRPRPPRLPRPRPRPSGEPRP
shrunken log2 fold change: 0.126

RRIRPRPPRLPRPRPRPSITPRP
shrunken log2 fold change: -0.401

RRIRPRPPRLPRPRPRPSIVPRP
shrunken log2 fold change: -0.662

RRIRPRPPRLPRPRPRPSIWPRP
shrunken log2 fold change: -0.11

RRIRPRPPRLPRPRPRPSKGPRP
shrunken log2 fold change: 0.0318

RRIRPRPPRLPRPRPRPSKHPRP
shrunken log2 fold change: -0.441

RRIRPRPPRLPRPRPRPSKTPRP
shrunken log2 fold change: 0.0619

RRIRPRPPRLPRPRPRPSLKPRP
shrunken log2 fold change: -0.25

RRIRPRPPRLPRPRPRPSLTPRP
shrunken log2 fold change: -0.22

RRIRPRPPRLPRPRPRPSNHPRP
shrunken log2 fold change: -0.497

RRIRPRPPRLPRPRPRPSNLPRP
shrunken log2 fold change: -0.823

RRIRPRPPRLPRPRPRPSNNPRP
shrunken log2 fold change: -0.542

RRIRPRPPRLPRPRPRPSQDPRP
shrunken log2 fold change: -0.334

RRIRPRPPRLPRPRPRPSQWPRP
shrunken log2 fold change: -0.0044

RRIRPRPPRLPRPRPRPSRHPRP
shrunken log2 fold change: -0.0917

RRIRPRPPRLPRPRPRPSRVPRP
shrunken log2 fold change: 0.269

RRIRPRPPRLPRPRPRPSSCPRP
shrunken log2 fold change: 0.0133

RRIRPRPPRLPRPRPRPSSRPRP
shrunken log2 fold change: -0.863

RRIRPRPPRLPRPRPRPSTSPRP
shrunken log2 fold change: -0.0506

RRIRPRPPRLPRPRPRPSVCPRP
shrunken log2 fold change: -0.273

RRIRPRPPRLPRPRPRPSWTPRP
shrunken log2 fold change: -0.326

RRIRPRPPRLPRPRPRPSWYPRP
shrunken log2 fold change: -0.698

RRIRPRPPRLPRPRPRPSYEPRP
shrunken log2 fold change: -0.178

RRIRPRPPRLPRPRPRPSYYPRP
shrunken log2 fold change: -0.721

RRIRPRPPRLPRPRPRPTAFPRP
shrunken log2 fold change: 0.238

RRIRPRPPRLPRPRPRPTAIPRP
shrunken log2 fold change: 0.434

RRIRPRPPRLPRPRPRPTAKPRP
shrunken log2 fold change: 0.152

RRIRPRPPRLPRPRPRPTCLPRP
shrunken log2 fold change: -0.105

RRIRPRPPRLPRPRPRPTCQPRP
shrunken log2 fold change: -0.0775

RRIRPRPPRLPRPRPRPTFSPRP
shrunken log2 fold change: -0.182

RRIRPRPPRLPRPRPRPTGKPRP
shrunken log2 fold change: 0.102

RRIRPRPPRLPRPRPRPTLCPRP
shrunken log2 fold change: -0.0815

RRIRPRPPRLPRPRPRPTLLPRP
shrunken log2 fold change: -0.0649

RRIRPRPPRLPRPRPRPTLPPRP
shrunken log2 fold change: 0.309

RRIRPRPPRLPRPRPRPTLWPRP
shrunken log2 fold change: 0.299

RRIRPRPPRLPRPRPRPTMGPRP
shrunken log2 fold change: 0.0476

RRIRPRPPRLPRPRPRPTNPPRP
shrunken log2 fold change: 0.174

RRIRPRPPRLPRPRPRPTPHPRP
shrunken log2 fold change: 0.373

RRIRPRPPRLPRPRPRPTPWPRP
shrunken log2 fold change: 0.427

RRIRPRPPRLPRPRPRPTQLPRP
shrunken log2 fold change: 0.166

RRIRPRPPRLPRPRPRPTRKPRP
shrunken log2 fold change: 0.483
